From patent US20260258115A1 (MAPP BIOPHARMACEUTICAL, published 2026) come the findings set out here.

In general, Kd refers to the free concentration of one partner at which half of the binding sites on the other are occupied at equilibrium, for simple one-to-one binding.

For test [1], the target named is T1, RSV postfusion F (postF), subtype B (respiratory syncytial virus subtype B).
T1 construct: also called Postfusion subtype B
The test is described as follows: BLI, IgG. On the technique in general: BLI is a label-free optical method that tracks binding on a fibre tip over time.

In test [2] the target is T2, RSV postfusion F (postF), subtype A (respiratory syncytial virus subtype A, UniProt P03420 26-513).
T2 construct: also called Postfusion subtype A; F deltaFP
The test is described as follows: BLI, IgG.

Test [3] has as its target RSV F on RSV subtype A virus (RSV-A2) (Respiratory Syncytial Virus, subtype A, …, UniProt P03420 26-574). Kind of test: cell-based or functional assay.
Test [4] deals with T3, RSV prefusion F (preF), subtype B (respiratory syncytial virus subtype B).
T3 construct: also called Prefusion subtype B
The test is described as follows: BLI, IgG.

Test [5] addresses T2, RSV postfusion F (postF), subtype A. Kind of test: BLI.
For test [6], the target named is RSV F on RSV subtype A virus (mKate-RSV A2) (respiratory syncytial virus A2, UniProt P03420 26-574). The test is described as follows: cell-based or functional assay.

B1: ADI-19503 (antibody, V domains shown)
VH: QVQLVQSGAEVKKPGASVKVSCKASGYTFTSYYMHWVRQAPGQGLEWMGIINPSGGSTSYAQKFQGRVTMTRDTSTSTVYMELSSLRSEDTAVYYCARDSLVNCSGGSCPGGPDYWGQGTLVTVSS
VL: SYVLTQPPSVSVSPGQTARITCSGDALPKKYAYWYQQKSGQAPVLVIYEDSKRPSGIPERFSGSSSGTMATLTISGAQVEDEADYYCYSTDSSGNHRVFGGGTKLTVL
notes: full-length IgG
As for B1, in test [1], binding was characterised by a dissociation constant (Kd) of 11.6 nM.

B2: ADI-24803 (antibody, V domains shown)
VH: EVQLLESGGGLVLPGGSLRLSCAASGFTFSSYAMSWVRQAPGKGLEWVSAISGSGIYTYYADSVKGRFTISRDNSKNTLYLQMSSLRAEDTAVYYCAKGSLGMAYSAFDIWGLGTTVTVSS
VL: DIQLTQSPGTLSLSSGERATLSCRASQSVSSNYLAWYQQKPGQPPRLLIYGASSRATGIPDRFSGSGSGTDFTLTISRLEPEDFAVYYCQQYGSSPLTFGGGTKVDIK
notes: full-length IgG
With B2, the dissociation constant (Kd) was 1.2 nM in test [2] and 0.442 nM in test [1].

B3: ADI-41344 (antibody, V domains shown)
VH: EVQLVESGGGLVKPGGSLRLSCAASGSSFSSYYMNWVRQAPGKGLEWVSSISSSSTYIDYADSVKGRFTISRDNAKNSLFLQMNSLRAEDTAVYYCARVSSPMIRGYYLDYWGQGTLVTVSS
VL: QPVLTQPPSVSGAPGQRVTISCTGSSSNIGAGYDVHWYQQLPGTAPKLVIHGNSNRPSGVPDRFSGSKSGTSASLAITGLQGEDEADYYCQSYDSSLSGSVFGGGTKLTVL
As for B3, in test [3], the “Neutralization - RSV A2 IC50 (pM)” value turned out to be 229 pM and the “neut IC50 (ug/ml) subtype A (wright)” value was found to be 0.064 µg/mL.

B4: ADI-19478 (antibody, V domains shown)
VH: QVQLVESGPGVVKPSETLSLTCTVSGGPVSSRSYYWGWIRQPPGKGLEWIGSIYYSGSTYYNTSLKSRVTISVDTSKNQFSLKLSSVTAADTAVYYCAKLQYSTSGFDYWGQGTLVTVSS
VL: QPVLTQPPSVSEAPRQRVTISCSGSSSNIGNNAVSWYQQLPGKAPKLLIYYDDLVPSGVSDRFSGSKSGTSASLAISGLQSEDEADYYCAAWDDSLNGVVFGGGTKLTVL
notes: full-length IgG; also called Ab 180
B4: binding in test [1] was put at a Kd of 0.713 nM.

B5: ADI-14369 (antibody, V domains shown)
VH: QVQLVQSGAEVKKPGSSVKVSCKASGGTFSSNAISWVRQAPGQGLEWMGGIIPIFATANYAQNFQDRVTITADESTGTAYMELSSLRYEDTAVYYCAKSAIHSGYHGPARSGFYQNGMDVWGQGTTVTVSS
VL: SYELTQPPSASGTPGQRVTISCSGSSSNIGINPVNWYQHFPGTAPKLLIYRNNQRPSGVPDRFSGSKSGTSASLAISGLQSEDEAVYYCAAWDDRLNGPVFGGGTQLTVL
notes: full-length IgG; also called Ab 37
For B5, the Kd is 3.38 nM in test [4] and 0.9 nM in test [1].

B6: ADI-19511 (antibody, V domains shown)
VH: QITLKESGPTLVKPTQTLTLTCTFSGFSLSTSGVGVGWIRQPPGKALEWLALIYWDDDKRYSPSLKSRLTITKDTSKNQVVLTMTNMDPVDTATYYCAHSVYYDFWSGYYVPNYFDYWGQGTLVTVSS
VL: DIQMTQSPSSLSASVGDRVTITCRASQGIRNDLGWYQQKPGKAPKRLIYAASSLQSGVPSRFSGSGSGTEFTLTISSLQPEDFATYYCLQHNSYPLTFGGGTKVEIK
notes: full-length IgG
On to B6, for which the Kd in test [1] came out at 15.3 nM. Further, the binding result in test [5] is on record as “no binding”.

B7: ADI-25573 (antibody, V domains shown)
VH: EVQLVESGAEVKKPGASVKVSCKASGYTFTSYYMHWVRQAPGQGLEWMGIINPSGGSTSYAQKFQGRVTMTRDTSTSTVYMELSSLRSEDTAVYYCARGPYDSSGYCDYWGQGTLVTVSS
VL: SYELMQPPSVSVAPGKTARITCGGNNIGSKSVHWYQQKPGQAPVLVVYDDSDRPSGTPERFSGSNSGNTATLTISRVEAGDEADYYCQVWDSSSDQVFGGGTKVTVL
notes: full-length IgG
In turn, B7 showed a Kd in test [1] of 48.6 nM. Besides, in test [5], the binding result is recorded as “no binding”.

B8: ADI-25575 (antibody, V domains shown)
VH: EVQLVESGAEVKKPGASVKVSCKASGYTFTSYYMHWVRQAPGQGLEWMGIINPSGGSTSYAQKFQGRVTMTRDTSTSTVYMELSSLRSEDTAVYYCARGPYDSSGYCDYWGQGTLVTVSS
VL: SYELTQPPSVSVAPGKTARITCGGNNIGSKSVHWYQQKPGQAPVLVVYDDSDRPSGIPERFSGSNSGNTATLTISRVEAGDEADYYCQVWDSSSDQVFGGGTKLTVL
notes: full-length IgG
For the molecule B8, the “Neut IC50 subtype A” value in test [6] turned out to be 5.64 µg/mL. The same molecule gave a Kd in test [1] of 39.6 nM.

B9: ADI-24825 (antibody, V domains shown)
VH: QVQLVQSGAEVKKPGASVKVSCKASGYTFTSYDINWVRQATGQGLEWMGWMNPNSGNTGYAQKFQGRVTMTRNTSISTAYMELSSLRSEDTAVYYCSSVGGYYYYGMDVWGQGTTVTVSS
VL: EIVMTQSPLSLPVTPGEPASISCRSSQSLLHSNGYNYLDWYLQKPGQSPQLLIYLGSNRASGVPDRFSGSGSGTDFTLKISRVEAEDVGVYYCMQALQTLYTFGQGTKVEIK
notes: full-length IgG
With B9, the dissociation constant (Kd) in test [2] turned out to be 30.1 nM; in test [1] it was 26 nM.

B10: ADI-41563 (antibody, V domains shown)
VH: QVQLVESGPGLVKPSETLSLTCTVSDDSITNNFWTWIRQPPGKGLEWIGYIYYSGSTNYNPSLKSRITMSVDLSKNQFSLKLSSVTAADTAVYYCARLTSGGVDYWGQGTLVTVSS
VL: QSVLTQPPSLSGAPGQRVTISCTGSSSNIGADYHVHWYQQLPGTAPKLLIYQNTNRPSGVPDRFSASKSGTSVSLAITGLQAEDEADYYCQSYDSSLSAWVFGGGTKLTVL
In the case of B10, in test [3], the “Neutralization - RSV A2 IC50 (pM)” value was found to be 139 pM and the “neut IC50 (ug/ml) subtype A (wright)” value was 0.032 µg/mL.

B11: ADI-19486 (antibody, V domains shown)
VH: QVQLQESGPGLVKPSETLSLTCSVSGGSLTSYYWSWIRQPPGKGLEWIGYIYYSGSTNYNPSLKSRLTISVDTSKNQFSLKLSSVTAADTAVYYCARVGGRGVINVFDYWGQGTLVTVSS
VL: QPVLTQPASVSGSPGQSITISCTGTSSDVGGYNYVSWYQQHPGKAPKLMIYEVSNRPSGVSNRFSGSKSGNTASLTISGLQAEDEADYYCDSYRSNSASVVFGGGTKLTVL
notes: full-length IgG
Take B11: the Kd in test [2] is 0.525 nM; in test [1], 7.55 nM.

B12: ADI-14356 (antibody, V domains shown)
VH: QVQLQESGAGLLKPSETLSLTCAVYGGSFSGYYWSWIRQPPGKGLEWIGEINHSGSTNYNPSLKSRVTISVDTSKNQFSLKLSSVTAADTAVYYCARDQRIVVVGAATEPYYYYYGMDVWGQGTTVTVSS
VL: QPVLTQPPSVSVSPGQTARITCSGDALPKQYAYWYQQKPGQAPVLVIYKDSERPSGIPERFSGSSSGTTVTLTISGVQAEDEADYYCQSADSSGTYRVFGGGTKLTVL
notes: full-length IgG; also called Ab 24
In the case of B12, the Kd came out at 13 nM in test [4] and 4.98 nM in test [1].

B13: ADI-41594 (antibody, V domains shown)
VH: EVQLVESGGGLVKPGGSLRLSCAASGFSFSSYYMNWVRQAPGKGLEWVSSISPSSSYTNYADSVKGRFTISRDNAKDSLYLQMNSLRAEDTAVYYCARDGLLGITIFGVVQDYWGQGTLVTVSS
VL: QSVVTQPPSVSGAPGQRVTISCTGSSSNIGAGYDVHWYQQLPGTAPKLLIYGNTNRPSGVPDRFSASKSGTSASLAITGLQAEDEADYYCQSYDSSLSVVFGGGTKLTVL
For B13, in test [3], the “Neutralization - RSV A2 IC50 (pM)” value amounted to 208 pM and the “neut IC50 (ug/ml) subtype A (wright)” value stood at 0.041 µg/mL.

B14: ADI-19479 (antibody, V domains shown)
VH: QVQLVQSGAEVKKPGSSVKVSCKASGGTFSSNAINWVRQAPGQGLEWMGGIIPIFGTANYAQKFQGRVTITTDESTSTAYMELSSLRSEDTAVYYCATTFYYGSGADYWGQGTLVTVSS
VL: DIQMTQSPLSLPVTLGQPASISCRSSQSLVYSDGNMYLSWFQQRPGQSPRRLIYKVSNRDSGVPDRFSGSGSGTDFTLKISRVEAEDVGVYYCMQGTHWWTFGQGTKVEIK
notes: full-length IgG
For the molecule B14, the results for the dissociation constant Kd in test [2] and in test [1] were 3.69 nM and 2.69 nM, respectively.

B15: ADI-22772 (antibody, V domains shown)
VH: EVQLVESGGGVVQPGRSLRLSCAASGFTFSSYAMHWVRQAPGKGLEWVAVISYDGSNKYYADSVKGRFTISRDNSKNTLYLQMNSLRAEDTAVYYCARAVEQQLFIWYYGMDVWGQGTTVTVSS
VL: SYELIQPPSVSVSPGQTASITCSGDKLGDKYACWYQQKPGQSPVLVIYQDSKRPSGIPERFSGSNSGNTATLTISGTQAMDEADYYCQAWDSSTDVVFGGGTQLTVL
notes: full-length IgG
B15 registered a Kd in test [1] of 50.2 nM. Further, in test [5], the binding result is “no binding”.

B16: ADI-24793 (antibody, V domains shown)
VH: QVQLVQSGAEVKKPGESLKISCKGSGYSFTSYWIGWVRQMPGKGLEWMGIIYPGDSDTRYSPSFQGQVTISADKSISTAYLQWSSLKASDTAMFYCVMGSYSYYFDYWGQGTLVTVSS
VL: NFMLTQPHSVSESPGKTVTISCTRSSGSIASNYVQWYQQRPGSAPTTVIYEDNLRPSGVPDRFSGSIDSSSNSASLTISGLKTEDEADYYCQSYDSSNQVFGGGTKLTVL
notes: full-length IgG
B16 returned an equilibrium dissociation constant (Kd) in test [1] of 26.8 nM. Further, the binding result in test [5] is “no binding”.

B17: ADI-19497 (antibody, V domains shown)
VH: QVQLVQSGAEVKKPGASVKVSCKASGYTFTSYYMHWVRQAPGQGLEWMGIINPSGGSTSYAQKFQGRVTMTRDTSTSTVYMELSSLRSEDTAVYYCSRGYSYGYDYWGQGTLVTVSS
VL: NFMLTQPHSVSESPGKTVTISCTRSSGSIASNYVQWYQQRPGSSPTTVIYEDNQRPSGVPDRFSGSIDSSSNSASLTISGLKTEDEADYYCQSYDSSNWVFGGGTKLTVL
notes: full-length IgG
In turn, B17 showed a Kd in test [1] of 13.4 nM.

B18: ADI-25576 (antibody, V domains shown)
VH: EVQLVESGGGLVQPGGSLRLSCAASGFTFSSYWMHWVRQAPGKGLVWVSRINSDGSSTSYADSVKGRFTISRDNAKNTLYLQMNSLRAEDTAVYYCARGLYNWNHDYWGQGTLVTVSS
VL: NFMLTQPHSVSESPGKTVTISCTRSSGSIASNYVQWYQQRPGSSPTTVIYEDNQRPSGVPDRFSGSIDSSSNSASLTISGLKTEDEADYYCQSYDSSNVVFGGGTKVTVL
notes: full-length IgG; also called Ab 460
The molecule B18 had a Kd in test [1] of 23.9 nM.

B19: ADI-24846 (antibody, V domains shown)
VH: EVQLLESGGGLVKPGGSLRLSCAASGFTFSSYSMNWVRQAPGKGLEWVSSISSSSSYIYYADSVKGRFTISRDNAKNSLYLQMNSLRAEDTAVYYCARDDGILWLDYWGQGTLVTVSS
VL: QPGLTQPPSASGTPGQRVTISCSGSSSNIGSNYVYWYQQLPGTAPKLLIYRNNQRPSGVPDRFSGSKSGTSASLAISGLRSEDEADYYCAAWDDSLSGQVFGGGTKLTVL
notes: full-length IgG
Turning to B19, in test [1], the affinity, expressed as Kd, was 29.1 nM. Besides, the binding result in test [5] is recorded as “no binding”.

B20: ADI-19476 (antibody, V domains shown)
VH: QVQLVESGPTLVKPTQTLTLTCTFSGFSLSTSRVGVGWIRQPPGKALEWLALIYWDDDKRYSPSLKSRLTITKDTSKNQVVLTMTNMDPVDTARYYCAHRSTYDILGGYYYFDYWGQGTLVTVSS
VL: QPVLTQPRSVSGSPGQSVTISCTGTSSDVGGYNYVSWFQQHPGKAPKLMIYDVSKRPSGVPNRFSGSKSGNTASLTISGLQAEDEADYFCCSYAGTYEVFGGGTKLTVL
notes: full-length IgG
On to B20, for which the values for the Kd in test [2] and in test [1] were 0.801 nM and 0.838 nM, respectively.
